Assay: Body weight, haematological evaluation and flow cytometry of tumor-bearing mice on supplemented diets with chemotherapy (Example 2)
Type: in vivo, C57BL/6 (H-2b) mice
Protocol: Mice. […] The animals were distributed into 7 different group diets. There was a control group that received the diet AIN 93 for adult rodents (maintenance). […] Control animals without chemotherapeutic treatment were run in parallel for all tested diets. Body weight was assessed every two days. Blood samples were obtained at day 2, 4 and 10 after the chemo-treatment and at sacrifice (14 or 28 days). An autopsy was performed and tumor mass was assessed.
Haematological evaluation.
Flow cytometric analysis.

B1: lactoferrin: diet with 25 mg/day of lactoferrin (protein, UniProt P24627 20-708, looked up)
Lactotransferrin: APRKNVRWCTISQPEWFKCRRWQWRMKKLGAPSITCVRRAFALECIRAIAEKKADAVTLDGGMVFEAGRDPYKLRPVAAEIYGTKESPQTHYYAVAVVKKGSNFQLDQLQGRKSCHTGLGRSAGWIIPMGILRPYLSWTESLEPLQGAVAKFFSASCVPCIDRQAYPNLCQLCKGEGENQCACSSREPYFGYSGAFKCLQDGAGDVAFVKETTVFENLPEKADRDQYELLCLNNSRAPVDAFKECHLAQVPSHAVVARSVDGKEDLIWKLLSKAQEKFGKNKSRSFQLFGSPPGQRDLLFKDSALGFLRIPSKVDSALYLGSRYLTTLKNLRETAEEVKARYTRVVWCAVGPEEQKKCQQWSQQSGQNVTCATASTTDDCIVLVLKGEADALNLDGGYIYTAGKCGLVPVLAENRKSSKHSSLDCVLRPTEGYLAVAVVKKANEGLTWNSLKDKKSCHTAVDRTAGWNIPMGLIVNQTGSCAFDEFFSQSCAPGADPKSRLCALCAGDDQGLDKCVPNSKEKYYGYTGAFRCLAEDVGDVAFVKNDTVWENTNGESTADWAKNLNREDFRLLCLDGTRKPVTEAQSCHLAVAPNHAVVSRSDRAAHVKQVLLHQQALFGKNGKNCPDKFCLFKSETKNLLFNDNTECLAKLGGRPTYEEYLGTEYVTAIANLKKCSTSPLLEACAFLTR
toxicity (bone marrow) (chemotherapy treated group compared to the control, FIG. 11): less toxicity | Global lymphocyte population (following chemotherapy, supplemented diet): less depressed following chemotherapy | leukocytic increase (oxaliplatin treated animals, supplemented diet): tended to be higher | immune cell population / concentration (second phase (tumor-induced toxicity)): increase in their immune cell population

Source: US20110229521A1, “NUTRITIONAL SUPPORT OF THE IMMUNE SYSTEM DURING ANTI-CANCER TREATMENT” (priority 2008, published 2011)
